Measurements reported in the supplement of paper PMC11246515.
± gives the standard deviation of the averaged measurements.

Assay: total protein half-life in vivo (active degradation + dilution); higher = more stable protein
[1] = E. coli NCM3722 delta-clpP delta-lon delta-hslV, growth: N-lim chemostat, doubling time 6 h
[2] = E. coli NCM3722 delta-clpP, growth: N-lim chemostat, doubling time 6 h
[3] = E. coli NCM3722 delta-smpB, growth: N-lim chemostat, doubling time 6 h
[4] = wild type E. coli NCM3722, growth: C-lim chemostat, doubling time 12 h
[5] = wild type E. coli NCM3722, growth: N-lim chemostat, doubling time 6 h
[6] = wild type E. coli NCM3722, growth: N-lim chemostat, doubling time 12 h
[7] = E. coli NCM3722 delta-hslV, growth: N-lim chemostat, doubling time 6 h
[8] = E. coli NCM3722 delta-lon, growth: N-lim chemostat, doubling time 6 h
[9] = wild type E. coli NCM3722, growth: C-lim chemostat, doubling time 3 h
[10] = wild type E. coli NCM3722, growth: C-lim chemostat, doubling time 6 h
[11] = wild type E. coli NCM3722, growth: P-lim chemostat, doubling time 6 h
[12] = wild type E. coli NCM3722, growth: P-lim chemostat, doubling time 12 h

Row | Sequence | total protein half-life in vivo [1] | total protein half-life in vivo [2] | total protein half-life in vivo [3] | total protein half-life in vivo [4] | total protein half-life in vivo [5] | total protein half-life in vivo [6] | total protein half-life in vivo [7] | total protein half-life in vivo [8] | total protein half-life in vivo [9] | total protein half-life in vivo [10] | total protein half-life in vivo [11] | total protein half-life in vivo [12]
1 | MHEITLCQRALELIEQQAAKHGAKRVTGVWLKIGAFSCVETSSLAFCFDLVCRGSVAEGCKLHLEEQEAECWCETCQQYVTLLTQRVRRCPQCHGDMLQIVADDGLQIRRIEIDQE [P0A700] | 4.63 h | 2.12 h | 1.76 h | 11.3 h | 2.36 h | 2.23 h | – | – | – | – | – | –
2 | MHFRAITRIVGLLVILFSGTMIIPGLVALIYRDGAGRAFTQTFFVALAIGSMLWWPNRKEKGELKSREGFLIVVLFWTVLGSVGALPFIFSESPNLTITDAFFESFSGLTTTGATTLVGLDSLPHAILFYRQMLQWFGGMGIIVLAVAILPILGVGGMQLYRAEMPGPLKDNKMRPRIAETAKTLWLIYVLLTVACALALWFAGMDAFDAIGHSFATIAIGGFSTHDASIGYFDSPTINTIIAIFLLISGCNYGLHFSLLSGRSLKVYWRDPEFRMFIGVQFTLVVICTLVLWFHNVYSSALMTINQAFFQVVSMATTAGFTTDSIARWPLFLPVLLLCSAFIGGCAGSTGGGLKVIRILLLFKQGNRELKRLVHPNAVYSIKLGNRALPERILEAVWGFFSAYALVFIVSMLAIIATGVDDFSAFASVVATLNNLGPGLGVVADNFTSMNPVAKWILIANMLFGRLEVFTLLVLFTPTFWRE [P0AFZ7] | 7.11 h | 6.5 h | – | 12.8 ± 1.7 h | 6.77 ± 0.85 h | 12.3 ± 0.14 h | 6.15 ± 0.27 h | 5.5 ± 1.2 h | 3.51 ± 0.23 h | 6.13 ± 0.096 h | 5.4 h | 11.4 ± 0.63 h
3 | MHGNSEMQKINQTSAMPEKTDVHWSGRFSVAPMLDWTDRHCRYFLRLLSRNTLLYTEMVTTGAIIHGKGDYLAYSEEEHPVALQLGGSDPAALAQCAKLAEARGYDEINLNVGCPSDRVQNGMFGACLMGNAQLVADCVKAMRDVVSIPVTVKTRIGIDDQDSYEFLCDFINTVSGKGECEMFIIHARKAWLSGLSPKENREIPPLDYPRVYQLKRDFPHLTMSINGGIKSLEEAKAHLQHMDGVMVGREAYQNPGILAAVDREIFGSSDTDADPVAVVRAMYPYIERELSQGTYLGHITRHMLGLFQGIPGARQWRRYLSENAHKAGADINVLEHALKLVADKR | 4.26 ± 0.35 h | 4.49 ± 1.1 h | 4.07 ± 0.18 h | 9.77 ± 1.5 h | 4.2 ± 0.5 h | 6.88 ± 0.21 h | 4.51 ± 0.81 h | 4.31 ± 0.14 h | 3.01 ± 0.14 h | 5.432 ± 0.022 h | 6.57 ± 1.6 h | 10.9 ± 1.2 h
4 | MHHATPLITTIVGGLVLAFILGMLANKLRISPLVGYLLAGVLAGPFTPGFVADTKLAPELAELGVILLMFGVGLHFSLKDLMAVKAIAIPGAIAQIAVATLLGMALSAVLGWSLMTGIVFGLCLSTASTVVLLRALEERQLIDSQRGQIAIGWLIVEDLVMVLTLVLLPAVAGMMEQGDVGFATLAVDMGITIGKVIAFIAIMMLVGRRLVPWIMARSAATGSRELFTLSVLALALGVAFGAVELFDVSFALGAFFAGMVLNESELSHRAAHDTLPLRDAFAVLFFVSVGMLFDPLILIQQPLAVLATLAIILFGKSLAAFFLVRLFGHSQRTALTIAASLAQIGEFAFILAGLGMALNLLPQAGQNLVLAGAILSIMLNPVLFALLEKYLAKTETLEEQTLEEAIEEEKQIPVDICNHALLVGYGRVGSLLGEKLLASDIPLVVIETSRTRVDELRERGVRAVLGNAANEEIMQLAHLECAKWLILTIPNGYEAGEIVASARAKNPDIEIIARAHYDDEVAYITERGANQVVMGEREIARTMLELLETPPAGEVVTG | 7.0037 ± 0.0035 h | 6.7 ± 0.41 h | 6.31 ± 0.61 h | – | 5.84 ± 0.9 h | 12.7 ± 0.69 h | 6.3 ± 0.52 h | 6.24 ± 1.1 h | > 4 h | 5.87 ± 0.64 h | 6.44 ± 0.68 h | 12.6 ± 0.86 h
5 | MHINIAWQDVDTVLLDMDGTLLDLAFDNYFWQKLVPETWGAKNGVTPQEAMEYMRQQYHDVQHTLNWYCLDYWSEQLGLDICAMTTEMGPRAVLREDTIPFLEALKASGKQRILLTNAHPHNLAVKLEHTGLDAHLDLLLSTHTFGYPKEDQRLWHAVAEATGLKAERTLFIDDSEAILDAAAQFGIRYCLGVTNPDSGIAEKQYQRHPSLNDYRRLIPSLM | 4.35 ± 0.11 h | – | – | – | – | – | – | 2.37 ± 2.1 h | 0.973 ± 0.063 h | 0.971 h | 0.56 h | 0.544 h
